Results taken from PMC4838364 (Nucleic Acids Research, 2016).
Each block holds one molecule with its values, some of them ahead of it.

B1: Hef from Thermoplasma acidophilum, wild-type (natural protein, Thermoplasma acidophilum DSM 1728, UniProt Q9HI46 1-508, looked up)
chain: MIIQPREYQLNVFKNSIGQNTLIVMPTGLGKTIIAAMFIEKFYGEKKRSLMVAPTKPLVLQHARTIADSTGISENEIGVFTGEIDAEERELIWVTKKIFVSTPQVVFNDMRSGILDITKFDLIIFDEAHRAVGNYAYVDIAQEYLKYKKKLIIGLTASPGSSREKIDEIMANLGISKVIAKTEMDEDVRKYVKTIDVKLIKIREPDGTKEIVNMIDAVMSKLLEPVKSSNFSIGRSRKDLVATMQKVINSAKEDRSLFQLVRRITAAIRLDYLKEYIETQGIDVALHYLEEMEKSQDPGIRRAISMLSSLDEFATLRTKLMLAADGYTNPKMEKTLSIMESNVHGNARAIVFTHYRITSDLLMDYIQKNGTSLKPVRFIGQADRGSDEGLSQDQQKKIIEDFKNNVYNVLIATSIAEEGLDIPDTDFVIFYEAVPSEIRYIQRKGRTGRSRNGQVYILVFENSRDMAYYYSSIRKVSRMTQTIEDLRQESGSDEKEEKSDVQKTIFDF
B2: PCNA from Thermoplasma acidophilum (natural protein, Thermoplasma acidophilum DSM 1728, UniProt Q9HJQ0 1-246, looked up)
chain: MIRLNLSVKNLKEITDLLSTIVSEAKFRVDENGMSVTAVDPAHVAMIRLEVPKEAFVEFHTDGQEEIALDIDRLKSVIRLASSSENVGITKDGEKLKFELGTINKSISLLDPSTIVTPKIPNITSEYYAVLKKSDFERGLRAAEDISDSIRFTLSQDGFKAYSHSESEESEMILPKDLITDMSCNTTIKSSYPLEYLLKFIKAISSTDSLKLSFRDDYPLSVEFYLDQNPGAKIKGLFLLAPRMEQ

What was measured:
[1] = molecular target: Flag-FANCM PIP-box mutant (L8R/W12S), full length (human) (UniProt Q8IYD8); experiment: proximity ligation
Chain of Flag-FANCM PIP-box mutant (L8R/W12S), full length (human) (Q8IYD8 whole entry L8R/W12S): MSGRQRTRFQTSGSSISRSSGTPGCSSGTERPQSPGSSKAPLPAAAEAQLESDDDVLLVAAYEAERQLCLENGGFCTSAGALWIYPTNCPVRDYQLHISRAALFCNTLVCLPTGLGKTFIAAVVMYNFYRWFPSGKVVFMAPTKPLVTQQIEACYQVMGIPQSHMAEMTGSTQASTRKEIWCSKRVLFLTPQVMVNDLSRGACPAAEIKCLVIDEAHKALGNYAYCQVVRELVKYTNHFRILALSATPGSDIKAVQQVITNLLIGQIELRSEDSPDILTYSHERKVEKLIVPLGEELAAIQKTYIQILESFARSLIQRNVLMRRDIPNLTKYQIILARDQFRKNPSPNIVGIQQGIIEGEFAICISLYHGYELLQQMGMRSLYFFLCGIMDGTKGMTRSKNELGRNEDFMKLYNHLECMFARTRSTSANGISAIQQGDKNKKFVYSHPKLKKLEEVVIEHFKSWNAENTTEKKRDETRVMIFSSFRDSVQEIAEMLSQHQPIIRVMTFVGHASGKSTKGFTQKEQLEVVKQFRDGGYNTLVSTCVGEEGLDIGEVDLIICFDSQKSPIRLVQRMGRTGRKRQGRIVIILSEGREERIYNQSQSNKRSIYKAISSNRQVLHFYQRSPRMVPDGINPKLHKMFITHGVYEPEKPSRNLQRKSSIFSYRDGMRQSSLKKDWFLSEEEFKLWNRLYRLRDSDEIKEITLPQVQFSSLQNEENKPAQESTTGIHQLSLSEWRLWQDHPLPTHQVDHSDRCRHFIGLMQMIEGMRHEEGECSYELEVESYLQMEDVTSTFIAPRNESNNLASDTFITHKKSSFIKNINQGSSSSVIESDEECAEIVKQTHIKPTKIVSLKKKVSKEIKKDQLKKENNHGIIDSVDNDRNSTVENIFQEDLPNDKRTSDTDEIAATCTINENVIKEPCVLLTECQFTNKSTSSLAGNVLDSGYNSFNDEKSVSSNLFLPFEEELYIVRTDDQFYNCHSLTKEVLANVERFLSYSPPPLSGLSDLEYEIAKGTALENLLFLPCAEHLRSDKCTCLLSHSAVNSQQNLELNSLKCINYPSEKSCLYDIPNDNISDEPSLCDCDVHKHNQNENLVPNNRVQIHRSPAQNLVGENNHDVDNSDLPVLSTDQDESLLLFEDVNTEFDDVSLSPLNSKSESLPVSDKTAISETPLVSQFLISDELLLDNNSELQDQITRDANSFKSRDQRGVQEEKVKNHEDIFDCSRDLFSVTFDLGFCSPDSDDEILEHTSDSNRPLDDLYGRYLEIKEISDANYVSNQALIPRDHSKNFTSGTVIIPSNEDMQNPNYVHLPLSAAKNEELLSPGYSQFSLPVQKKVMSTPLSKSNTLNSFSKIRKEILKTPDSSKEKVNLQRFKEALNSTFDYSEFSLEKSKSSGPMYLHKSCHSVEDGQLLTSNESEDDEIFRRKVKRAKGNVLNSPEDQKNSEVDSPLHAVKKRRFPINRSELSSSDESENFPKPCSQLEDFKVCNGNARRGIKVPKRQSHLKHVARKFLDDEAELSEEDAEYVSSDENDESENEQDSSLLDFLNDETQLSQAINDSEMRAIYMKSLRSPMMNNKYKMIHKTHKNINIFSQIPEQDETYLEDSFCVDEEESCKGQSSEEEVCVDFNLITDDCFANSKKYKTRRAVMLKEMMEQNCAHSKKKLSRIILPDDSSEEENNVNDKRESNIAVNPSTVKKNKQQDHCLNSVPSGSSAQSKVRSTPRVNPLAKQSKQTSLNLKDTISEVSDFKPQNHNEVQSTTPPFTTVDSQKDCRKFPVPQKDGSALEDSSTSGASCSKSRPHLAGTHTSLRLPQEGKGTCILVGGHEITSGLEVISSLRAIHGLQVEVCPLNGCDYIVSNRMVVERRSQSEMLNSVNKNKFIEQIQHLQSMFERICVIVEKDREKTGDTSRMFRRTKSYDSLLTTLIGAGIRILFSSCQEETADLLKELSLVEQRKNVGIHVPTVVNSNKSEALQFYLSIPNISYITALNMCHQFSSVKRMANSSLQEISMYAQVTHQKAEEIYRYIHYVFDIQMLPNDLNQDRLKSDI

[2] = molecular target: B2; experiment: SAXS
[3] = molecular target: B2; experiment: SEC
[4] = molecular target: B1; experiment: ITC
SEC = molecular target: the molecule itself; experiment: SEC
Human PCNA, recombinant = Human PCNA, recombinant (human, UniProt P12004 1-261); experiment: ITC
Chain of Human PCNA, recombinant (P12004 whole entry): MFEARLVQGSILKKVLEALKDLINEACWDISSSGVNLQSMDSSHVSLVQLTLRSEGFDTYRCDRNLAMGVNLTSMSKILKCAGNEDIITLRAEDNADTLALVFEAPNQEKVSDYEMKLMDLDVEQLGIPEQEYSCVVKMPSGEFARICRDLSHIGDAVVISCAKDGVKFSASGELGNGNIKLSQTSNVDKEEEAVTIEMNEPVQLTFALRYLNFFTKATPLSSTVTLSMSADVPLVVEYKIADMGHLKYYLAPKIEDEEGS

PLA signal relative to wildtype FANCM (HU-treated cells) [1]: 50%
Molecule: PCNA, endogenous (from UniProt P12004 1-261) (natural protein)

Kd (Human PCNA, recombinant): 13 µM
Molecule: MSGRQRTLFQTWGSSIS (peptide, UniProt Q8IYD8 1-17, looked up) [hsFANCM 1-17 wildtype peptide]

The next lines start with the molecule.

Molecule: B1
stoichiometry N [2]: 3 taHef per taPCNA trimer | stoichiometry N [3]: 3 taHef monomers per taPCNA homotrimer

Molecule: B2
Kd [4]: 1 µM | stoichiometry N (SEC): 3
